Entries after “also recorded” stand apart in the source; their conditions may differ.
Columns and labels:
[1] = parameters: species or system E. coli
Text: (§1) The sequences of these designs are not related to those of proteins with known structure (BLAST E-values ranged from 0.11 to 1.9 against the non-redundant protein database) and fold into the designed structure in silico (FIG. 2A). Synthetic genes encoding the designs were expressed in E. coli. […] The crystal structure of BB1 solved at 1.6 Å resolution was very close to the design model (within 1.4 Å RMSD over 99 residues of the 109 residues, FIG. 2F-G, deviations from the design are shown in FIG. 10) and had no close structural homolog in the PDB (highest TM-score <0.8). Essentially all of the key features of the design model are found in the crystal structure. The cross-section of the structure resembles the square cavity of the design model, which is not observed in any existing natural β-barrel crystal structures (FIG. 21), and is shaped by the designed glycine kinks. All 7 designed turns and β-bulges are correctly recapitulated in the crystal structure (FIG. 2H,J), along with the 3-10 helix and tryptophan corner (FIG. 2K).
(§2) Protein expression and purification. Genes encoding the nonfunctional β-barrel designs (41 from parametric design and 4 from fragment-base design) were synthesized and cloned into the pET-29 vector (GenScript, Inc). Plasmids were then transformed into BL21*(DE3) E. coli strain (NEB, Inc). […]

[2] = Size-exclusion chromatography (SEC, SEC-MALS); assay type: physicochemical; conditions: oligomeric state
Text: as §1, §2

[3] = Circular dichroism, thermal and GuHCl denaturation; assay type: physicochemical
Method: Circular dichroism (CD). Purified protein samples were prepared at 0.5 mg/ml in 20 mM Tris buffer (150 mM NaCl, pH8.0) or PBS buffer (25 mM phosphate, 150 mM NaCl, pH7.4). Wavelength scans from 195 nm to 260 nm were recorded at 25 degrees Celsius, 75 degrees Celsius, 95 degrees Celsius and cooling back to 25 degrees Celsius. Thermal denaturation was monitored at 220 nm or 226 nm from 25 degrees Celsius to 95 degrees Celsius. Near-UV wavelength scan from 240 nm to 320 nm and tryptophan fluorescence emission were recorded in the absence and presence of 5M guanidinium chloride (GuHCl). Chemical denaturation in GuHCl was monitored by both tryptophan fluorescence and near-UV CD signal at 285 nm. The concentration of the GuHCl stock solution was measured with a refractometer (Spectronic Instruments, Inc). Far-UV CD experiments were performed on an AVIV model 420 CD spectrometer (Aviv Biomedical, Inc). Near-UV CD and tryptophan fluorescence experiments were performed on a Jasco J-1500 CD spectrometer (Jasco, Inc). Protein concentrations were determined by 280 nm absorbance with a NanoDrop™spectrophotometer (ThermoScientific, Inc). Melting temperatures were estimated by smoothing the sparse data with a Savitsky-Golay filter of order 3 and approximating the smoothed data with a cubic spline to compute derivatives. Reported Tm values are the inflection points of the melting curves.

B1: BB1: SEQ ID NO 1; nonfunctional de novo β-barrel design, stable monomer (protein)
chain: MVDAAQYFPGTWEFRFRSSDGKEYRGTVEMQPRTPTEIEIRFKGQSSDGRPVEGRGSIEVRSPYEYRFEMQSSDGARWEGTLQVRSPDSVEVRFKSSDGREYSGEFRRQE
modifications: (1)..(1) optionally absent
Question: For B1, which Solubility [1] is on record?
Answer: Its Solubility is “yes”.

Question: And the SEC [2]?
Answer: Its SEC is “monomer”.

Question: What about the “β CD spectrum” value [3] of the same molecule?
Answer: The value was “yes”.

Question: And the Thermal stability ([3]; CD)?
Answer: The Thermal stability was “unchanged at 95 °C; also recorded: stable at 95 degree Celsius; also recorded: does not temperature denature”.

Question: And the “Cooperative unfolding transition in guanidine” value ([3]; near UV CD signal and tryptophan fluorescence)?
Answer: The value was 2.5 M.

Reference: patent US20210047373A1, “BETA BARREL POLYPEPTIDES AND METHODS FOR THEIR USE” (UNIVERSITY OF WASHINGTON, priority 2018, published 2021)
